# Reference: the supplement of paper PMC11875167
# Experiment: observed amide hydrogen exchange rate constant kobs (stretched exponential fit, FD-normalized) (s^-1); higher = faster H/D exchange (less protection)
# Settings: pH 3 (pH read); temperature: 20 °C; D2O: 88%
# Method in brief: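 Jurkat tryptic peptides (LysC/trypsin, carbamidomethylated cysteines) were labeled in 88% D2O, pHread 3, 20 °C, quenched with 0.23% formic acid at 13 times from 18 to 93,600 s, in processing triplicates. MS1 uptake (Q-Exactive HF, HDExaminer, no back-exchange correction) was normalized to full-deuteration controls (24 h, 37 °C). Curves were fitted to a stretched single exponential with β = 0.8. The observed exchange rate constant kobs is the fitted rate.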
row,Substance,observed amide hydrogen exchange rate constant kobs
1,IDEPLEGSEDR,0.00298
2,LGIHEDSTNR,0.00441
3,SYDVPPPPMEPDHPFYSNISK,0.00134
4,EWFLQAAK,0.00111
5,YPIEHGIITNWDDMEK,0.00172
6,SIQFVDWCPTGFK,0.00182
7,EQGVLSFWR,0.00106
8,STTTGHLIYK,0.00173
9,YLPELMAEK,0.000924
10,FSHEEIAMATVTALRR,0.000978
11,RVHPVSTMIK,0.00129
12,EFEPLLNWMK,0.000734
13,HQPTAIIAK,0.00045
14,DTGIFLDLMHLK,0.00141
15,REEEEFNTGPLSVLTQSVK,0.00112
16,VELFFK,0.000868
17,DQVANSAFVER,0.00108
18,LVINGNPITIFQERDPSK,0.000923
19,LTDCVVMRDPASK,0.000824
20,DLADELALVDVIEDK,0.00109
21,KLEAAEER,0.00257
22,HFVALSTNTTK,0.00117
23,LLQDFFNGK,0.00068
24,VHLVGIDIFTGK,0.00113
25,VYVGNLGNNGNK,0.00211
26,EVDEQMLNVQNK,0.00132

row,Substance,observed amide hydrogen exchange rate constant kobs
1,YIDQEELNK,0.00207
2,HYGGLTGLNK,0.00221
3,MGANSLER,0.00212
4,GADFLVTEVENGGSLGSK,0.00147
5,VLEQLTGQTPVFSK,0.00081
6,AGFAGDDAPR,0.00357
7,VFLAQK,0.00073
8,LDGLVETPTGYIESLPR,0.000897
9,LVILANNCPALR,0.00112
10,FAAYFQQGDMESNGK,0.00182
11,SQLDIIIHSLK,0.000886
12,IEDGNNFGVAVQEK,0.00127
13,FAQPGSFEYEYAMR,0.00134
14,LLGELLQDNAK,0.000855
15,VVDLLAPYAK,0.000767
16,PFLWLAR,0.000665
17,EGLELPEDEEEK,0.00262
18,IILDLISESPIK,0.000711
19,EQFLDGDGWTSR,0.00231
20,IDNSQVESGSLEDDWDFLPPKK,0.00156
21,ALPFWNEEIVPQIK,0.000814
22,GDGPVQGIINFEQK,0.000693
23,TVHAGEVGSAEVVK,0.00152
24,EGIPALDNFLDKL,0.00119
25,SYELPDGQVITIGNER,0.000908
26,GYFEYIEENK,0.00229

row,Substance,observed amide hydrogen exchange rate constant kobs
1,NPDDITNEEYGEFYK,0.00176
2,FEDENFILK,0.00131
3,ATFMVGSYGPRPEEYEFLTPVEEAPK,0.00103
4,AIADTGANVVVTGGK,0.00115
5,AAGVNVEPFWPGLFAK,0.000814
6,LLEPVLLLGK,0.000574
7,VVVSGLPPSGSWQDLK,0.000996
8,SNEILTAIIQGMR,0.000423
9,GDEEGVPAVVIDMSGLR,0.00109
10,PVGSLAGIGEVLGK,0.00115
11,IIWQFIK,0.000404
12,IIAPPERK,0.00142
13,ALESPERPFLAILGGAK,0.00092
14,ALLFIPR,0.000533
15,DRPFFAGLVK,0.000655
16,IHPVSTMVK,0.000804
17,LMIEMDGTENK,0.00222
18,VIHDNFGIVEGLMTTVHAITATQK,0.00116
19,YHTSQSGDEMTSLSEYVSR,0.00202
20,VTVITK,0.000489
21,INISEGNCPER,0.000833
22,ILGLLDAYLK,0.00089
23,ATISNDGATILK,0.00117
24,ADLINNLGTIAK,0.000815
25,AIPQLQGYLR,0.00091
26,AYHEQLSVAEITNACFEPANQMVK,0.00146
